Laboratory results reported in paper PMC2820766 (The Journal of Biological Chemistry, 2009).

B1: MscSΔW L105W (W16Y/W240F/W251F/L105W), small mechanosensitive channel MscS-H6 (natural protein)
chain: MEDLNVVDSINGAGSYLVANQALLLSYAVNIVAALAIIIVGLIIARMISNAVNRLMISRKIDATVADFLSALVRYGIIAFTLIAALGRVGVQTASVIAVLGAAGWAVGLALQGSLSNLAAGVLLVMFRPFRAGEYVDLGGVAGTVLSVQIFSTTMRTADGKIIVIPNGKIIAGNIINFSREPVRRNEFIIGVAYDSDIDQVKQILTNIIQSEDRILKDREMTVRLNELGASSINFVVRVFSNSGDLQNVYFDVLERIKREFDAAGISFPYPQMDVNFKRVKEDKAA
B2: MscSΔW L105W/A106V (W16Y/W240F/W251F/L105W/A106V), small mechanosensitive channel MscS-H6 (natural protein)
chain: MEDLNVVDSINGAGSYLVANQALLLSYAVNIVAALAIIIVGLIIARMISNAVNRLMISRKIDATVADFLSALVRYGIIAFTLIAALGRVGVQTASVIAVLGAAGWVVGLALQGSLSNLAAGVLLVMFRPFRAGEYVDLGGVAGTVLSVQIFSTTMRTADGKIIVIPNGKIIAGNIINFSREPVRRNEFIIGVAYDSDIDQVKQILTNIIQSEDRILKDREMTVRLNELGASSINFVVRVFSNSGDLQNVYFDVLERIKREFDAAGISFPYPQMDVNFKRVKEDKAA

Biological target: the molecule itself
Assay: SEC

Protein	stoichiometry N
B1	7
B2	7
